In patent publication US20230052646A1 (JJP BIOLOGICS SP Z O O, published 2023):

Tests used:
[1] = molecular target: T1, membrane-bound full-length human HVEM on stable HVEM-transfected HEK293F cells (clone no. 128) (human, UniProt Q92956 39-283); assay: FACS, Ab 10 µg/mL then biotinylated BTLA on HVEM-HEK293F
T1 construct: The same cDNA was also expressed on Sf9 insect cells; also called TNFRSF14; CD270
T1 sequence: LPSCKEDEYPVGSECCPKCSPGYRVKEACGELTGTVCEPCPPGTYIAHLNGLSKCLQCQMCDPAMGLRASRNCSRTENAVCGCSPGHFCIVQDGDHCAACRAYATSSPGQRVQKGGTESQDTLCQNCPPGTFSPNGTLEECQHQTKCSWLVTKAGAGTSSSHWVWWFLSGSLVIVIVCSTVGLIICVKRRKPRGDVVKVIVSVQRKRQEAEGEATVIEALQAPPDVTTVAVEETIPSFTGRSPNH
Experimental: Generation of human ‘full-length’ HVEM-transfected HEK293F cells (clone no. 128) is described in Example 1a. Binding of soluble human BTLA, of soluble human CD160, of soluble human LIGHT, and of soluble human TNFβ on surface human HVEM-transfected cells was analysed by FACS analysis. To this end, stable human full-length HVEM-transfected HEK293F cells were put at 10×10⁶ cells/mL in ice-chilled phosphate-buffered saline containing 0.1% BSA (Sigma)/0.05% NaN₃ (PBS/BSA/NaN₃) supplemented with 50 μg/mL human IgGs (blocking possible Fcγ receptors; Sigma) for 10 minutes at 4° C. Then, 10 μL/tube (i.e., 0.1×10⁶ cells) of these cells were incubated with or without 100 μL purified chimeric mouse/human anti-HVEM antibody at 10 μg/mL/tube or a human IgG4/κ (Sigma) negative isotype control at 10 μg/mL/tube for 30 minutes at 4° C. After this (i.e., without washing), cells were subsequently incubated with 1 μg/mL soluble biotinylated human BTLA (Sino Biological Inc), with 10 μg/mL soluble his-tagged human CD160 (Sino Biological Inc), with 1 μg/mL soluble his-tagged human LIGHT (Sino Biological Inc), or with 0.1 μg/mL soluble biotinylated human TNFβ (Sino Biological Inc) in PBS/BSA/NaN₃ for 30 minutes at 4° C. After extensive washing in PBS/BSA/NaN₃, cells were incubated with 1:200 diluted PE-conjugated streptavidin (detection BTLA and TNFβ; Jackson ImmunoResearch) or with biotinylated mouse anti-his antibody (detection CD160 and LIGHT; R&D Systems) at 10 μg/mL for 30 minutes at 4° C. After extensive washing in PBS/BSA/NaN₃, cells were incubated with 1:200 diluted PE-conjugated streptavidin (detection CD160 and LIGHT; Jackson ImmunoResearch) for 30 minutes at 4° C. After extensive washing in PBS/BSA/NaN₃, cells were fixed in 4% formaldehyde in PBS/BSA/NaN₃ for 30 minutes at 4° C. Binding of ligands BTLA, CD160, LIGHT and TNFβ on membrane human HVEM was measured using a flow cytometer (model FACSCalibur; BD Biosciences). For comparison, purified BTLA/HVEM blocking mouse anti-human HVEM antibody counterparts no. 36H12, 45H6, 48H6, 11H7, and 49G4 at 10 μg/mL/tube and a mouse IgG1 (BD Biosciences) negative isotype control at 10 μg/mL/tube were run in parallel.

[2] = molecular target: T1, membrane-bound full-length human HVEM …; assay: FACS titration on HVEM-HEK293F, half-maximum binding
Experimental: In order to determine the relative binding affinity of purified BTLA/HVEM blocking chimeric mouse/human anti-human HVEM antibodies no. 36H12, 45H6, 48H6, 11H7, and 49G4 for human HVEM, FACS analysis was used.
To this end, stable human full-length HVEM-transfected HEK293F cells (clone no. 128; see Example 1(a) above) were put at 10×10⁶ cells/mL in ice-chilled PBS containing 0.1% BSA (Sigma)/0.05% NaN₃ (PBS/BSA/NaN₃) supplemented with 50 μg/mL human IgGs (blocking possible Fcγ receptors; Sigma) for 10 minutes at 4° C. Then, 10 μL/tube (i.e., 0.1×10⁶ cells) of these cells were incubated with or without 100 μL titrated (in PBS/BSA/NaN₃) purified BTLA/HVEM blocking chimeric mouse/human anti-human HVEM antibody/tube for 30 minutes at 4° C. After extensive washing in PBS/BSA/NaN₃, cells were subsequently incubated with 1:200 diluted PE-conjugated goat anti-human IgG Fcγ-specific antibodies (Jackson ImmunoResearch) for 30 minutes at 4° C. After extensive washing in PBS/BSA/NaN₃, cells were fixed in 4% formaldehyde in PBS/BSA/NaN₃ for 30 minutes at 4° C. Binding (geo-mean fluorescence intensity) of chimeric mouse/human anti-human HVEM antibodies no. 36H12, 45H6, 48H6, 11H7, and 49G4 on membrane human HVEM was measured using a flow cytometer (FACSCalibur; BD Biosciences). For comparison, purified BTLA/HVEM blocking mouse anti-human HVEM antibody counterparts no. 36H12, 45H6, 48H6, 11H7, and 49G4 were run in parallel, and their binding was monitored as described in Example 2 (a).

% blocking of ligand binding [1]: > 95% | EC50 [2]: 0.43 µg/mL
B1: mouse anti-human HVEM antibody no. 36H12 (antibody, mouse IgG1, V domains shown)
VH: EVQLQQSGAGLVKPGASVKLSCTASGFNIKDTYMHWVRQRPEQGLEWIGRIDPATANTKYDPKFQGKATLTTDTSSNTAYLQLSSLTSEDTAVYYCVTYGYDVSWFAYWGLGALVTVSA
VL: DVLMTQTPLSLPVSLGDQASISCRSSQSIVHSNGITYLEWYLQKPGQSPKLLIYKVSNRFSGVPDRFSGSGSGTDFTLKISRVEAEDLGVYYCFQGSHVPLTFGAGTKLELK
notes: mouse IgG1/kappa; also called 36H12 (mouse)
